# Test results: patent US20080096222
# Legend:
# [1] = target: H3-GST with the mutation K4A
# [2] = target: H3-GST with the mutation R2A
protein,measurement,setting,value
myc-tagged human haspin (protein) AASLPGPGSRLFRTYGAADGRRQRRPGREAAQWFPPQDRRRFFNSSGSSDASIGDPSQSDDPDDPDDPDFPGSPVRRRRRCPGGRVPKDRPSLTVTPKRWKLRARPSLTVTPRRLGLRARPPQKCSTPCGPLRLPPFPSRDSGRLSPDLSVCGQPRDGDELGISASLFSSLASPCPGSPTPRDSVISIGTSACLVAASAVPSDLHLPEVSLDRASLPCSQEEATGGAKDTRMVHQTRASLRSVLFGLMNSGTPEDSEFRADGKNMRESCCKRKLVVGNGPEGPGLSSTGKRRATGQDSCQERGLQEAVRREHQEASVPKGRIVPRGTDRLERTRSSRKSKHQEATETSLLHSHRFKKGQKLGKDSFPTQDLTPLQNACFWTKTRASFSFHKKKIVTDVSEVCSIYTTATSLSGSLLSECSNRPVMNRTSGAPSSWHSSSMYLLSPLNTLSISNKKASDAEKVYGECSQKGPVPFSHCLPTEKLQRCEKIGEGVFGEVFQTIADHTPVAIKIIAIEGPDLVNGSHQKTFEEILPEIIISKELSLLSGEVCNRTEGFIGLNSVHCVQGSYPPLLLKAWDHYNSTKGSANDRPDFFKDDQLFIVLEFEFGGIDLEQMRTKLSSLATAKSILHQLTASLAVAEASLRFEHRDLHWGNVLLKKTSLKKLHYTLNGKSSTIPSCGLQVSIIDYTLSRLERDGIVVFCDVSMDEDLFTGDGDYQFDIYRLMKKENNNRWGEYHPYSNVLWLHYLTDKMLKQMTFKTKCNTPAMKQIKRKIQEFHRTMLNFSSATDLLCQHSLFK,phosphorylation of H3-GST by haspin (in vitro kinase assay),[1],substantially reduced phosphorylation of H3-GST by haspin
same,phosphorylation of H3-GST by haspin (in vitro kinase assay),[2],substantially reduced phosphorylation of H3-GST by haspin
